Laboratory results reported in the DeepSol protein solubility set.

experiment: soluble on expression in E. coli; label from the status in PepcDB or PDB records

Soluble on expression in E. coli, not soluble:
MGSDKIHHHHHHMQSNLVMFPIVEVVRPGTQVKETNSTDYEGAEQQFLLLLATEDLDDNLDRQAAIVSDFEQAVSRAINGAYKRECQDDLAHRFLQRILYRINRLNLFWFDDLRQYTNERSLYLSSCRNQIEAAWQKWELAQVDVAAIQKLDVKQALIDRADADLDPPLSAASRYIREEMSEAGYRQLLAIGSFDGLVEGSRLSRILGGAANEVQCTLVRVLLEEYGNGRLSRKHSTFFAQMLAEFGMNTTPEAYFDLVPWEVLACANHNFLLTERRRYYLRYSGGLTYFEVAGPAAYRNYLAAAQRLGLSNAAMGYWELHIREDERHGRWMLDDVALPLAQRYPDDAWELVLGYDQEKLMGDRAAEAVVRSTRQAESIN
MGSDKIHHHHHHMQTLEQLTSPEHSAWITLSQWIDNARNHCEVIKKDQSSAERELFTMQMPTSSPMGAVIYETGGILIHYGWLRILGSGSFKLPRGLMDWNFSKSFSESGEKPKYLLVADDVIGGYFALNGGSLGNNIGKIYYYSSKDLTWHNLNFTYTEFLAWVLNGDVEAFYQGLFWKNWQDDVKQLDGNQVFVFTPDLNQDRKIAIDERQKQEVNIETHYQANFAEKNKFDLAYSVA
MGSDKIHHHHHHMQTSHCLWQRKLVAFTSRSERMDENWKQQLATDSYGNPVRSISNLRLIFTLDENLSQIRYDTFCQDDVCFNPLFRNVNGNKIDEESVGKIQDYLERTYRLRLTQNKVFEILKTTSSERSFNPVQEFITQETWDGQPRIATAIIDYLGAEDMPLVREQTKLWFVAAVARVFSPGCKFDNVLTLPGPQGIGKSTFFKTISGKWFNDSFSFASGDKEKVETITNGWIIEISELNGLKRANDVEAAKAFLSRCSDYMRPAYGHKVVEFMRHNVFAATTNETNFLQGDNGNRRWWIIPVKGNGHVSDWLDCLQHSVPQLWAEAYTYYRQGMKLYLSPDMEIEANEIQMQHSNILVDPIMEDIEMYLEREVPVQYASWMIPTRLAYQKGAYSEPNSTMTSLNMVCARQIIEELPNDLVRRNTSKYTSQYINRLMSMIPNWKRSKQEKVKGLHPAYCDKTGRSKHPWVRVGTPSEEVCATLPSEPELPF
MGSDKIHHHHHHMQVLGLCRFSYLGLGGFKVMHETLEERRAYLYAPARMEDRFRQFEAVTLPSVTGQTDPDFEFLVVIGECFPDSYRARLEDLVRGVPQVRIRAYPPLRHRTAMAQALDDHRRDMDAPCLQFRLDDDDGMARDFVARYREVAADTEALWRKHPAVAVDFNTGYVFRCGKRGIEISPFQFAYSAIALGVIVAPGHREGIMHFGHHKLWTVMPTITVPGEDMMLRGHNEFNDSRAKPGAKQFSYQPLDADEEAYFKARFNVDNARVREIFSAPMP
MGSDKIHHHHHHMRAFVFPGQGSQYSGMAKDFSVYESSKEIFERSKKVLGFDITEIMNGDEETLKLTENAQPSIYITSYIAFLELEKRGILPDVVAGHSLGEYTALAVAGVYDFETGLYLVRKRGEYMSKALEPGKGTMAAVIGLNIETIEEVVNSIEGVYIANYNSHDQVVISGLKESVEKAMEILKEKGARRVVELMVSSPFHTPFLEYAREKMKEEVEKVDFKKPRWPIVMNSTAKPTENPEEIKRNIIEQITGPVLWKQSVDTMKKMGVTEFVEVGPKTVLKNLCRRMGANAKHFTEILSE
MGSDKIHHHHHHMRELRYNPLTGQWIMVSAVRKNRPWRPRNFCPFCPGSEETGYGWEVLLLPNRFPMLSFDAPKPKNEDFYKKARAMGQCSVIVETPKHELRDLDELPREQMVKIVRMWIKITETLKENRNVAYLAIFRNKGEEIGVSLKHPHGQLYALPYIPLKVRLKIENSRRYYKRTGECIFCRIIKEEEKNGERTIYENDNFIVFMPFFASWPFEVHIYPKRHIQYLTDLKVNEIEDLAEVIQVTTATLNAVLDRQMPYAMMIFQAPFKGNYPFYHLHIEFYPILRDNGKVKYTAGIELGTWEFTYDGIPEENARKLKEACKKVSQRMSLKGKCI
MGSDKIHHHHHHMRIAFSTLGCPQAPLHEVTALAREHRVDGLELRIHDDGIVSDHMDRSRREQVRASISRTGLTVLSLGSYIKVCQPGPDETVVRQLRTALELAADVGAEAVRVFPGAGTGPTTDHYGIAVTELDMRGSSRLAAAAPIAERLGLRLLLETHDSHPRGVDISRILAPFRAEDPVGAIWDVMHPWRFGEDPVQTAHQLGSHYQYVQFKDATMDRQTGNLTMTLPGAGDIPLQRILDLVVARTPTTEEPWISLEWEKAWHPELPGLPEALIAFKTLLGRPESDAALSGSPRRPGSAAGARRNGTL
MGSDKIHHHHHHMRIDLSLKPTPVQFLKRLSEKYGFNIYVKRDDLTELVGSGNKIRKLEYLLWEALKKGATTVFTCGGLQSNHARATAYVSRRYGLKPVLFLRKGEKVLNGNLLLDILLGAEIVEVSPEEYERIDEIFDVHKKMREKKGEKVYVIPEGGSNSLGAFGYFNAVLEMKDQLNLESFDAIVCAVGSGGTIAGLSAGISFLEYHVPVVGVNVTTKNSDYFVGKVKRIISGMEEYGLRVNETVFEVVDDYRGPGYAIPSSEDVEILKEVASIEGIILDPVYTAKAFRGMIEMFRNSEKNVLFIHTGGIFGLFAQSRRLV
MGSDKIHHHHHHMRILEINTEKGWRGGENQTLLALIGFRKLGHEAELLCFENSALHVQAAAAGFTCHPLTSSTKSIGFLMEYGKNYSILHTQTSKQLTYCILTKPFHNSKVILSRRVDFVPKGFFTLLKYNACDGIICVSGAIEKILKQSGIKTRTVVISDCVTEKTLNKTRAQELLQKLTISGKNIIGTTAALVPHKDPVTLVNAVNILRTKRSDFVLLHFGSGPLAATIQQFITDNNLQDYYKLIGFKERVEDYFSIFNYFVMSSQEEGLGSSVLDAFVYKVPVVSTNAGGLNELVTGRGYVTEKKNAQLLAEALHTAMNSPEQNKKNVAAGYTYAVSNLSVEKIHEEHIDFFKTV
MGSDKIHHHHHHMRILFYCDTVFSFGGVQRVLAEIAKALSGKHEVTILTTDTCTDLSMYGYAESTVRFDSFSYSASSFIERLLCKGYSFLYKHGLPHTRLTSEWYAASFFPSSYKRTLARKINARQCDVVIGVHAFMALHLSAVKSRIRTKTVGWLHNSYEAFFEKETPYLPGLDCFFQVQMGKLDERVVLSHADAGCFFRKMNLCCEVIYNPLTVLPKGRGKKEYRRILAVGRFSFGHKGFDILIKAFSVFVKTHPDWTLEIVGEGPEEALYRSLINEYELEKSIALHPFTKEVQEYYAHSSMYVLSSRWEGFGLVMIEAMAHGLPVIASDLPITRELLKDKDMAVLFETGNIAQLAGCMSYMADRTDWEWMGNKAVEYADTFHIEKVCDSWNNLLKKVVYGTR
MGSDKIHHHHHHMRISLGPLVYCWQKQQVMAFYQQVAASQIPLVYLGEAVCSRRRELKWGDYFELARMLKQAGKEVVISTLALIEASSEYTELKRQVDNGEFMIEANDMAAVYLAKEHKLPFVCGASINNYNRASLDILHGFGMQRFVMPVELSKAWLQHVIQNKPAFEVEVFGHGYLPLAHSARCFTARHKQLTKDSCETICRQYSKGLLAQTQEMQPLLRLNGIQTQSAACLDLSSEIAAMNTMGVDVFRVSPSGTESIVRAESLIEALNMPEMALNAPIKGEQCDGYWFGEAGLTIHHAT
MGSDKIHHHHHHMRKAGESMKEFISLKIDYAFKLIFGKEGNEAILIAFLNAALKLPQERRIEAITIMNPELNKEYQGDKKSILDVRAETSEGMQINIEIQLSNQYDMEKRSLYYWAEMYSRQIREGMAYKELAKAVTINILDFNYLKQTSNYHNVFHLYEDEEKFQLTDALEMHFMELPKLLAKWRNREISPWENELVRWLLLLEGADNQEILQTLEEIAMKDPVLHQAMTAWEETSDDPRIREAYFDRRKAVLDEKAAIREAELRLKEALEKGRAAGIAAGKAEGKAEVAKKLLDLGFEITKVAEATGLSEKDIRSLKD
MGSDKIHHHHHHMRKIKLIIFPGYYIPHIGGLETHVDEFTKHLSEDENYDIYIFAPNIPKYKEFEIRHNNVKVYRYPAFEIIPNYPVPNIFNIKFWRMFFNLYKIDFDIVMTRTRFFSNTLLGFIFAKLRFKKKKLIHVEHGSAFVKLESEFKNKLSYFYDKTIGKLIFKKADYVVAISKAVKNFILENFVNDKDIPIIYRGLEIEKIESIGEDKKIKEKFKNKIKLCFVGRLYKWKGVENIIKAYVDLPKDLKEKIILIVVGYGEDLERLKKLAGNYLNNGIYFTGKVDFEKAIAIVKASDIYIHSSYKGGGLSSSLLQAMCCGKAIVASPYEGADEVVIDGYNGILLKDNSPEEIKRGIIKLIENNNLRKIYGENAKNFIKENFNWKKSVKEYKKIFERLVN
MGSDKIHHHHHHMRKLAHNFYKPLAIGAPEPIRELPVRPERVVHFFPPHVEKIRARIPEVAKQVDVLCGNLEDAIPMDAKEAARNGFIEVVKATDFGDTALWVRVNALNSPWVLDDIAEIVAAVGNKLDVIMIPKVEGPWDIHFVDQYLALLEARHQIKKPILIHALLETAQGMVNLEEIAGASPRMHGFSLGPADLAASRGMKTTRVGGGHPFYGVLADPQEGQAERPFYQQDLWHYTIARMVDVAVAHGLRAFYGPFGDIKDEAACEAQFRNAFLLGCTGAWSLAPNQIPIAKRVFSPDVNEVLFAKRILEAMPDGSGVAMIDGKMQDDATWKQAKVIVDLARMIAKKDPDLAQAYGL
MGSDKIHHHHHHMRKMRVLAIGNVFNPSGVSVHIINVLKELVKMGDEVFLYVPSFLVRRNYEVLKDLENAHISVHHSVYETKEAEEVGTLPYFIRSHTVYLRWNNLGEDRKYIDELKDIKPDVIYDMHEDSITLRLSYHIAKRLNKPLVKLLHDEPFRNSFGRGYRKFLGIKGLAYDTLMWMFYKFDKRAFLRSINDGILRGIAGVSKAPFYLSGIEEIAHSVRLKVYEVGNAFNKDIIYKYRRTRGKEDYAVFFARLVPQKGIKELPKIADLLDSKIVVFGKIFNENDRSILMSHPKIEYKGYRPIEEVYNTVAKAKVLIYPSHQDGFSLVVLDTLALGTSVVAYDIPAIRFVFSSLKPVRTVREYDIKEMASTANSILRMKDEEYESEHEDEKVKKFLELHSSWANVAKETHDFLSAFL
MGSDKIHHHHHHMRLILYLGKGGVGKTTTSAATAVRAAELGYRTLVVSTDVAHSLADALDTPLGSLPTQITERLWGQEINVLDEVREHWGELRVYLSNLLRRRGVDEVAAEELAIIPGMEEVVSLLHIRRQAREGNFDVVIVDAAPTGETVRLLTMPETFQWYAARVMDWEPTTLKVARPLVKQLVPATDVFAKLERLTKGVEALRATLTDPQISSYRLVVNPERMVIKEAQRASTYLALFGYPVDGVVLNRVLPVDQVEGAFMQELARIQQGYRQMVYDLFRPLPIWESPYFARDLAGIEDLAMVGRRLFGDDDPVKVHFIGKTQEIVKQGDEYVLRLPLPHVEIGKVSMTKRGDELFIEIGNFRRDMLLPTTLAERPARRAYFRNGVLEVFFGPPETLSLKTDAQEESTPS
MGSDKIHHHHHHMRLNELYSGKNAFIFQGVGIKYQKFLTLLDESQRELLKEYCSIVYKKIKLDLWGYLTRSLSGEYDDKFSDWVSIYTIDCVVYNTYIEDGIKPSVLLGYSMGLITALACGKAISFEEGLELLSMSYNYPKYTSRKDEGMGLVTGMTCSDIKKIIDKNELGDYAYIASENNEYCILVSGMKNRVDKLLSIALTEGALSAKDIDSPYAFHSKYALIGIEEYEKLVSRLCVCNLKIPIISSYDQRIIVDSCELKKELVKNVWGEMKWMASVEKAININNYNFFEVSLIDSISRFSRMINSNCKFFTYKSFMKIKNVQVQN
